Data as given in publication PMC9482650, “Quantitative fragmentomics allow affinity mapping of interactomes” (Nature Communications, 2022).

Key:
Test in all cases: holdup assay
Parameters in all cases: key: below the threshold = too weak to quantify, mostly under pKd 3.1 to 4
Settings in all cases: plain residues with an end cap or a label only (N-terminal biotin on a linker: ado-ado)
LIN7B, Q9HAP6 = biological target: T1, LIN7B, Q9HAP6
T1 sequence (Q9HAP6 88-185, limits assumed, looked up): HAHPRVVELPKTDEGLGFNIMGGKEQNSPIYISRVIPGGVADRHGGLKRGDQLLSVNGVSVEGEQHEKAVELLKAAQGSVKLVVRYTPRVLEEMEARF

SNTG2, Q9NY99 = biological target: T2, SNTG2, Q9NY99
T2 sequence (Q9NY99 68-166, limits assumed, looked up): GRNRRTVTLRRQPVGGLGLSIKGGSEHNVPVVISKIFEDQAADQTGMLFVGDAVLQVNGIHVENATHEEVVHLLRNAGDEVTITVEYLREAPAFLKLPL

DLG3_1, Q92796 = biological target: T3, DLG3_1, Q92796
T3 sequence (Q92796 125-227, limits assumed, looked up): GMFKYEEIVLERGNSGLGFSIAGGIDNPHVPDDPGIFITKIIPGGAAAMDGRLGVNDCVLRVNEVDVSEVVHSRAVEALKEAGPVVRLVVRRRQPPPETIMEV

PICK1, Q9NRD5 = biological target: PICK1, Q9NRD5
Chain of PICK1, Q9NRD5 (Q9NRD5 17-115): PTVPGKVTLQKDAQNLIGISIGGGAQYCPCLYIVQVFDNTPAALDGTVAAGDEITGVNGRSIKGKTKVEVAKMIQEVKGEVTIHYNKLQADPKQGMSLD

DLG3_2, Q92796 = biological target: T4, DLG3_2, Q92796
T4 sequence (Q92796 221-321, limits assumed, looked up): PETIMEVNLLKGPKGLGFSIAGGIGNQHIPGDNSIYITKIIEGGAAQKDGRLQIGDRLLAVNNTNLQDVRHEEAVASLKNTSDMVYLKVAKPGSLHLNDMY

GRID2IP_2, A4D2P6 = biological target: GRID2IP_2, A4D2P6
Chain of GRID2IP_2, A4D2P6 (A4D2P6 272-370): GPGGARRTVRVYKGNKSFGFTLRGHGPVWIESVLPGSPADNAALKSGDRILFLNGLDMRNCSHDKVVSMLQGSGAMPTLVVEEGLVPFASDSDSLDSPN

PDZRN3_1, Q9UPQ7 = biological target: T5, PDZRN3_1, Q9UPQ7
T5 sequence (Q9UPQ7 244-349, limits assumed, looked up): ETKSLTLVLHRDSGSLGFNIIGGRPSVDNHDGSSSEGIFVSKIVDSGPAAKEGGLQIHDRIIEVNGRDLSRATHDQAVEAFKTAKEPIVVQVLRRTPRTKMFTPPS

NHERF4_2, Q86UT5 = biological target: NHERF4_2, Q86UT5
Chain of NHERF4_2, Q86UT5 (Q86UT5 220-308): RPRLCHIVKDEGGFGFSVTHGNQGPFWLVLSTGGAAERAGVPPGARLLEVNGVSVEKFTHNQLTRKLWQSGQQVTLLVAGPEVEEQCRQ

TJP1_2, Q07157 = biological target: TJP1_2, Q07157
Chain of TJP1_2, Q07157 (Q07157 181-274): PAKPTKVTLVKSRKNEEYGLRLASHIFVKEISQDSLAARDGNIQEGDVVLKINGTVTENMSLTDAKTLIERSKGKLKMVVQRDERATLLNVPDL

FRMPD4, Q14CM0 = biological target: FRMPD4, Q14CM0
Chain of FRMPD4, Q14CM0 (Q14CM0 67-160): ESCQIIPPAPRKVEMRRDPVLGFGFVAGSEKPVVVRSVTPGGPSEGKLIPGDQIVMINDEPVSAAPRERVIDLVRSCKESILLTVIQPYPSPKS

SNTG1, Q9NSN8 = biological target: T6, SNTG1, Q9NSN8
T6 sequence (Q9NSN8 52-150, limits assumed, looked up): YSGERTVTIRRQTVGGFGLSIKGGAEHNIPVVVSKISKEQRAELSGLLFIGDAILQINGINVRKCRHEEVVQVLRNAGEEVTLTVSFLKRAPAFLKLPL

APBA2_1, Q99767 = biological target: T7, APBA2_1, Q99767
T7 sequence (Q99767 563-664, limits assumed, looked up): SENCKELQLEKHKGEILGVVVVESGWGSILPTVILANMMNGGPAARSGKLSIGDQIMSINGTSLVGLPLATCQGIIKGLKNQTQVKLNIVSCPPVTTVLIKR

ARHGEF12, Q9NZN5-2 = biological target: ARHGEF12, Q9NZN5-2
Chain of ARHGEF12, Q9NZN5-2 (Q9NZN5 other isoform, or with tags, fused parts or gaps): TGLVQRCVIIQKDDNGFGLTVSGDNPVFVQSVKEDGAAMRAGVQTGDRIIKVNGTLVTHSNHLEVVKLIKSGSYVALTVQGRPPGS

MAST2, Q6P0Q8 = biological target: MAST2, Q6P0Q8
Chain of MAST2, Q6P0Q8 (Q6P0Q8 1099-1202): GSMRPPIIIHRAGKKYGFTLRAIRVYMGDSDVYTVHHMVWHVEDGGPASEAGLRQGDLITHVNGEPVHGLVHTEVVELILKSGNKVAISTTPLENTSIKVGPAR

CASK, O14936 = biological target: CASK, O14936
Chain of CASK, O14936 (O14936 487-570): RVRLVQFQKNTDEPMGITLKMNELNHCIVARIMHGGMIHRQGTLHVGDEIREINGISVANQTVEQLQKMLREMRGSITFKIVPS

SNTA1, Q13424 = biological target: T8, SNTA1, Q13424
T8 sequence (Q13424 82-180, limits assumed, looked up): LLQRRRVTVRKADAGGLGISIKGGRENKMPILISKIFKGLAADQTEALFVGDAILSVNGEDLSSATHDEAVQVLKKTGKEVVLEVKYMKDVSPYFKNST

RADIL, Q96JH8 = biological target: T9, RADIL, Q96JH8
T9 sequence (Q96JH8 971-1071, limits assumed, looked up): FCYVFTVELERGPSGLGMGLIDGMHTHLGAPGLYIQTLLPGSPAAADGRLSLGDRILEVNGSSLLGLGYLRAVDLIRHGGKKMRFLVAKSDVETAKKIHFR

GORASP2, Q9H8Y8 = biological target: GORASP2, Q9H8Y8
LIN7A, O14910 = biological target: T10, LIN7A, O14910
T10 sequence (O14910 103-200, limits assumed, looked up): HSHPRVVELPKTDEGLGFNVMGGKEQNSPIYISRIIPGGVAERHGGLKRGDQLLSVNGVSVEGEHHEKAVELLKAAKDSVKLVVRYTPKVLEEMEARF

Inadl_1, Q8NI35 = biological target: Inadl_1, Q8NI35
Chain of Inadl_1, Q8NI35 (Q8NI35 113-229): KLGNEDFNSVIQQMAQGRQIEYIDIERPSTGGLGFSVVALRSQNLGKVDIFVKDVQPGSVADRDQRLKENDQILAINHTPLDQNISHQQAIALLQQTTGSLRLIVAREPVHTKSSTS

MAGI1_1, Q96QZ7 = biological target: MAGI1_1, Q96QZ7
Chain of MAGI1_1, Q96QZ7 (Q96QZ7 1-106): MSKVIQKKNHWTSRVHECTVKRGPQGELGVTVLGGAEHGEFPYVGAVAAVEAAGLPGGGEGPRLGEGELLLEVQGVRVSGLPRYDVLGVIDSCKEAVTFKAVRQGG

DLG5_1, Q8TDM6 = biological target: DLG5_1, Q8TDM6
Chain of DLG5_1, Q8TDM6 (Q8TDM6 617-713): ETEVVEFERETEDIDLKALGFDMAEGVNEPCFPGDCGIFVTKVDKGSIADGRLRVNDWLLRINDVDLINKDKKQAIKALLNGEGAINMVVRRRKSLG

TX1BP3, O14907 = biological target: T11, TX1BP3, O14907
T11 sequence (O14907 10-122, limits assumed, looked up): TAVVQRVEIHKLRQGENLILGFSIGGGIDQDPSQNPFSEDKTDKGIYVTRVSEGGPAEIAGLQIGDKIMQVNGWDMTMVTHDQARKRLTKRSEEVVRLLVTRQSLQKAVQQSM

TIAM2, Q8IVF5 = biological target: T12, TIAM2, Q8IVF5
T12 sequence (Q8IVF5 885-986, limits assumed, looked up): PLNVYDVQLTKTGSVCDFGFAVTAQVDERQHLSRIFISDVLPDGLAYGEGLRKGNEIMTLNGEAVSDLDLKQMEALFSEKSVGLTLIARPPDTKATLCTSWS

Binder: ELSATVTTDC [TRIP6, Q15654]
- pKd (LIN7B, Q9HAP6): below the threshold
- pKd (SNTG2, Q9NY99): 3.79
- pKd (DLG3_1, Q92796): below the threshold
- pKd (PICK1, Q9NRD5): 3.8
- pKd (DLG3_2, Q92796): 4.23
- pKd (GRID2IP_2, A4D2P6): 3.69
- pKd (PDZRN3_1, Q9UPQ7): below the threshold
- pKd (NHERF4_2, Q86UT5): below the threshold
- pKd (TJP1_2, Q07157): 4.06
- pKd (FRMPD4, Q14CM0): below the threshold
- pKd (SNTG1, Q9NSN8): 3.48
- pKd (APBA2_1, Q99767): below the threshold
- pKd (ARHGEF12, Q9NZN5-2): 4.44
- pKd (MAST2, Q6P0Q8): 4.9
- pKd (CASK, O14936): below the threshold
- pKd (SNTA1, Q13424): 3.92
- pKd (RADIL, Q96JH8): 3.52
- pKd (GORASP2, Q9H8Y8): below the threshold
- pKd (LIN7A, O14910): below the threshold
- pKd (Inadl_1, Q8NI35): below the threshold
- pKd (MAGI1_1, Q96QZ7): 3.82
- pKd (DLG5_1, Q8TDM6): below the threshold
- pKd (TX1BP3, O14907): 3.48
- pKd (TIAM2, Q8IVF5): below the threshold

Binder: SPDRDRESIV [SCN5A, Q14524]
- pKd (LIN7B, Q9HAP6): below the threshold
- pKd (SNTG2, Q9NY99): 4.69
- pKd (DLG3_1, Q92796): 3.9
- pKd (PICK1, Q9NRD5): 4.21
- pKd (DLG3_2, Q92796): 4.57
- pKd (GRID2IP_2, A4D2P6): 3.63
- pKd (PDZRN3_1, Q9UPQ7): 3.91
- pKd (NHERF4_2, Q86UT5): below the threshold
- pKd (TJP1_2, Q07157): 3.49
- pKd (FRMPD4, Q14CM0): below the threshold
- pKd (SNTG1, Q9NSN8): 4.72
- pKd (APBA2_1, Q99767): below the threshold
- pKd (ARHGEF12, Q9NZN5-2): below the threshold
- pKd (MAST2, Q6P0Q8): 4.53
- pKd (CASK, O14936): below the threshold
- pKd (SNTA1, Q13424): 6.16
- pKd (RADIL, Q96JH8): 4.12
- pKd (GORASP2, Q9H8Y8): 3.88
- pKd (LIN7A, O14910): below the threshold
- pKd (Inadl_1, Q8NI35): below the threshold
- pKd (MAGI1_1, Q96QZ7): below the threshold
- pKd (DLG5_1, Q8TDM6): below the threshold
- pKd (TX1BP3, O14907): 4.5
- pKd (TIAM2, Q8IVF5): below the threshold

Binder: DDASLPVSDV [PLEKHA1, Q9HB21]
- pKd (LIN7B, Q9HAP6): below the threshold
- pKd (SNTG2, Q9NY99): 4.48
- pKd (DLG3_1, Q92796): below the threshold
- pKd (PICK1, Q9NRD5): below the threshold
- pKd (DLG3_2, Q92796): below the threshold
- pKd (GRID2IP_2, A4D2P6): 4.35
- pKd (PDZRN3_1, Q9UPQ7): below the threshold
- pKd (NHERF4_2, Q86UT5): below the threshold
- pKd (TJP1_2, Q07157): below the threshold
- pKd (FRMPD4, Q14CM0): below the threshold
- pKd (SNTG1, Q9NSN8): 5.09
- pKd (APBA2_1, Q99767): below the threshold
- pKd (ARHGEF12, Q9NZN5-2): 4.36
- pKd (MAST2, Q6P0Q8): 4.73
- pKd (CASK, O14936): below the threshold
- pKd (SNTA1, Q13424): 4.44
- pKd (RADIL, Q96JH8): 3.59
- pKd (GORASP2, Q9H8Y8): below the threshold
- pKd (LIN7A, O14910): below the threshold
- pKd (Inadl_1, Q8NI35): below the threshold
- pKd (MAGI1_1, Q96QZ7): below the threshold
- pKd (DLG5_1, Q8TDM6): below the threshold
- pKd (TX1BP3, O14907): 3.84
- pKd (TIAM2, Q8IVF5): below the threshold
